# Data published in paper PMC4239610, “A Peptide Derived from G0/G1 Switch Gene 2 Acts as Noncompetitive Inhibitor of Adipose Triglyceride Lipase” (The Journal of Biological Chemistry, 2014).
# B1: hG0S2: full-length human G0S2, 103-amino acid protein, expressed in E. coli (protein)
# chain: METVQELIPLAKEMMAQKRKGKMVKLYVLGSVLALFGVVLGLMETVCSPFTAARRLRDQEAAVAELQAALERQALQKQALQEKGKQQDTVLGGRALSNRQHAS
# modifications: left off: His6, N-terminal, cleaved | Smt, N-terminal, cleaved
# notes: full-length human G0S2, 103-amino acid protein, expressed in E. coli
# B2: G0S2 Met-1–Gln-73: truncated variant of G0S2 encompassing the residues Met-1–Gln-73 (protein, UniProt P27469 1-73, looked up, fragment)
# chain: METVQELIPLAKEMMAQKRKGKMVKLYVLGSVLALFGVVLGLMETVCSPFTAARRLRDQEAAVAELQAALERQ
# B3: hG0S2_27–103: N-terminally truncated hG0S2 until residue Tyr-27 (protein, UniProt P27469 27-103, looked up, fragment)
# chain: YVLGSVLALFGVVLGLMETVCSPFTAARRLRDQEAAVAELQAALERQALQKQALQEKGKQQDTVLGGRALSNRQHAS
# B4: CGI-58: comparative gene identification 58, protein co-activator of ATGL (protein, UniProt Q8WTS1 2-349, looked up)
# 1-acylglycerol-3-phosphate …: AAEEEEVDSADTGERSGWLTGWLPTWCPTSISHLKEAEEKMLKCVPCTYKKEPVRISNGNKIWTLKFSHNISNKTPLVLLHGFGGGLGLWALNFGDLCTNRPVYAFDLLGFGRSSRPRFDSDAEEVENQFVESIEEWRCALGLDKMILLGHNLGGFLAAAYSLKYPSRVNHLILVEPWGFPERPDLADQDRPIPVWIRALGAALTPFNPLAGLRIAGPFGLSLVQRLRPDFKRKYSSMFEDDTVTEYIYHCNVQTPSGETAFKNMTIPYGWAKRPMLQRIGKMHPDIPVSVIFGARSCIDGNSGTSIQSLRPHSYVKTIAILGAGHYVYADQPEEFNQKVKEICDTVD
# B5: G0S2 truncated after residue Gly-30: Truncation of G0S2 after residue Gly-30 (N-terminal) (protein, UniProt P27469 30-103, looked up, fragment)
# chain: GSVLALFGVVLGLMETVCSPFTAARRLRDQEAAVAELQAALERQALQKQALQEKGKQQDTVLGGRALSNRQHAS
# Assays:
# mATGL [1] = biological target: mATGL (Mus musculus, UniProt Q8BJ56); experiment: TG hydrolase activity of CGI-58-stimulated mATGL (mATGL*) expressed in E. coli; conditions: read-out: half-maximal inhibitory concentration (IC50), CGI-58-stimulated ATGL; mATGL from E. coli (25 μg lysate protein) with 2.5 μg mCGI-58; [3H]triolein substrate; triplicates; Fig. 2E (hGW2052), 2F (WT hG0S2)
# Chain of mATGL (Mus musculus, UniProt Q8BJ56) (Q8BJ56 whole entry): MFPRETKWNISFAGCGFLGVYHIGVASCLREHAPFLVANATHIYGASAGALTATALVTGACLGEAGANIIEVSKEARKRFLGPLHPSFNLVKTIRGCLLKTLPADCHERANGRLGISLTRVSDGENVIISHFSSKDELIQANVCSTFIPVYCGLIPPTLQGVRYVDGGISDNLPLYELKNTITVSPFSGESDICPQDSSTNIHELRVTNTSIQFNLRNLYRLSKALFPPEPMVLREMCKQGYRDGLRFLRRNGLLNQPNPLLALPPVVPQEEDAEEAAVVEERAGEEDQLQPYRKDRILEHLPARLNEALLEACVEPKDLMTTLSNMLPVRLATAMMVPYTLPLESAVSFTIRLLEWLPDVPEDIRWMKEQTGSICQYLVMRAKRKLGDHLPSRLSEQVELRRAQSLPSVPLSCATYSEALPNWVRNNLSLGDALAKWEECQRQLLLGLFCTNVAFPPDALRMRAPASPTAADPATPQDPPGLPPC
# Chain of mATGL (Mus musculus, UniProt Q8BJ56) (Q9DBL9 whole entry partner): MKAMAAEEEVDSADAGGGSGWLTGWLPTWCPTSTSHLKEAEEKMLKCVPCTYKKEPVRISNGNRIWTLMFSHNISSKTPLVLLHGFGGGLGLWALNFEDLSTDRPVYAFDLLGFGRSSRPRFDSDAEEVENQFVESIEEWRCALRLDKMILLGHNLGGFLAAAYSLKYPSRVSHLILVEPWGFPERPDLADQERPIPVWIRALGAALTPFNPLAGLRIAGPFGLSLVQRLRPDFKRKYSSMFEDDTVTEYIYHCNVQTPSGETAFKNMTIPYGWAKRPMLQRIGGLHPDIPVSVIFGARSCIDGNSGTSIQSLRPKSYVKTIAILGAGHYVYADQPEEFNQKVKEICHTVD
# Method: The peptides were dissolved in 100% DMSO, and concentrations were determined via the absorbance at 280 nm. The final DMSO concentration in the activity assay was ≤1%. The control peptide was prepared the same way.
# TG hydrolase activity assay was performed as described ([45]). To screen for the inhibitory capacity of various hG0S2 truncations, 30 μg of protein of cell lysates were incubated with the [^3H]triolein substrate together with 50 μg of cell extract of Strep-mATGL (or COS-7-mATGL) and 2.5 μg of purified mCGI-58. As a control, lysates of the His6-Smt tag were incubated under the same conditions. […] TG substrate was prepared with 1.67 mM triolein, 10 μCi/ml [9,10-^3H]triolein (PerkinElmer Life Sciences), and 190 μM phosphatidylcholine/phosphatidylinositol (3:1) (Sigma) and diluted to the respective concentrations after sonication. Assays with CGI-58 co-activated ATGL were performed on a smaller scale. […] Lysates using LacZ-expressing cells were used as controls. The reaction was terminated by adding 650 μl of methanol/chloroform/heptane (10:9:7) and 200 μl of 100 mM potassium carbonate buffer, pH 10.5 (adjusted with boric acid). The radioactivity in 200 μl of the upper phase (450 μl in total) was determined by liquid scintillation counting.
# ATGL [2] = conditions: cited from earlier work
# Source text: Activation of ATGL by CGI-58 is considered as fasting response upon β-adrenergic stimulation and phosphorylation of PKA ([12]). Recent studies have strengthened the role of G0S2 as the so-called master regulator of basal and stimulated lipolysis ([27]). mRNA levels of G0S2 respond strongly to hormonal stimuli, yet the dose-dependent inhibition of ATGL by G0S2 itself is reported to be independent of phosphorylation events ([18], [20], [21], [28], [29]). Thus, regulation of the expression levels of G0S2, and consequently the protein concentration, resembles a potent mean to regulate lipid mobili ... || Structural knowledge on ATGL is very limited. It is predicted to exert lipolytic activity via a catalytic dyad that resides in the patatin domain within the N-terminal half of the lipase ([7], [50]). […] In contrast, Atglis ...
# ATGL [3] = conditions: cited from earlier work; remark: listed apart in the source
# Source text: Extensive research on the physiological role of ATGL has identified complex regulatory mechanisms for its activity on the transcriptional and post-translational level ([12], [13]). Direct protein-protein interaction of ATGL with the protein comparative gene identification 58 (CGI-58) increases ATGL activity up to 20-fold ([14]). Inhibition of ATGL due to direct interaction with the small, 103-amino acid protein G0/G1 switch gene 2 (G0S2) was discovered in 2010 and confirmed using human and murine proteins ([15][–][21]). The highest G0S2 expression is found in adipose tissues, but it is also pr ... || Activation of ATGL by CGI-58 is considered as fasting response upon β-adrenergic stimulation and phosphorylation of PKA ([12]). Recent studies have strengthened the role of G0S2 as the so-called master regulator of basal and stimulated lipolysis ([27]). mRNA levels of G0S2 respond strongly to hormonal stimuli, yet the dose-dependent inhibition of ATGL by G0S2 itself is reported to be independent of phosphorylation events ([18], [20], [21], [28], [29]). Thus, regulation of the expression levels of G0S2, and consequently the protein concentration, resembles a potent mean to regulate lipid mobili ... || Next, we investigated the specificity of the peptide hGW2052. ATGL and HSL together account for more than 95% of intracellular TG hydrolase activity in white adipose tissue (WAT) ([48]). […]
# mATGL [4] = experiment: TG hydrolase activity, E. coli expressed mATGL, CGI-58 activated, hG0S2 truncations (Fig. 1C-E); assay type: biochemical, mouse; conditions: mATGL E. coli extract (50 μg), 2.5 μg purified mCGI-58, 30 μg lysate of E. coli expressing hG0S2 variant, [3H]triolein, triplicates
# Method: Protein concentrations were determined as described below.
# FIGURE 1. Minimal sequence requirements of human G0S2 for ATGL inhibition. A, graphical representation of full-length and shortened versions of hG0S2, those capable of inhibiting ATGL activity are illustrated in black. The largely hydrophobic sequence stretch from Val-28 to Met-42 is depicted in light gray. B–E, activity assays were performed in the presence of CGI-58 as indicated by an asterisk (ATGL*). G0S2 and variants thereof were expressed in E. coli and added as cell lysates. Overexpressed mATGL from E. coli lysates was used for all assays with the exception of the assay shown in B. B, inhibition of TG hydrolase activity of mATGL containing COS-7 cell extracts by WT and C-terminally truncated hG0S2 variants. C, inhibition of TG hydrolase activity of mATGL by WT and C-terminally truncated hG0S2 variants. D, inhibition of TG hydrolase activity of mATGL by WT hG0S2 and variants with N-terminal deletions. E, effect of different N- and C-terminal truncations in hG0S2 on mATGL activity. The fusion tag smt3 is shown as control.
molecule,measurement,setting,value
B1,IC50,mATGL [1],19 nM
same,site of interaction with ATGL,ATGL [2]; ref [15],interacts with the N-terminal catalytic domain of ATGL
B2,inhibition of ATGL (in words),"ATGL [3]; truncated/deleted G0S2 variants, ref [20]",inhibits the enzyme
same,interaction with ATGL,ATGL [2]; ref [20],interacts with ATGL
B3,inhibition of TG hydrolase activity (result in words),mATGL [4],fully inhibit ATGL activity
same,inhibition of TG hydrolase activity (result in words),mATGL [4]; listed as Tyr-27–Ser-103,fully able to inhibit ATGL
B4,increase of ATGL activity,"ATGL [3]; direct protein-protein interaction with ATGL, ref [14]",up to 20 fold
B5,inhibition of TG hydrolase activity (result in words),mATGL [4],complete loss of the capacity to inhibit ATGL
